# Measured values: patent publication US20140302063A1 (SECRETARY OF STATE FOR HEALTH, published 2014)
# B1: R1a-A5 (VHH)
# VHH: QVQLVESGGGLVQPGGSLRLSCSASGSAVLFSTYPMSWYRQAPGKQRELVAAVTTDGSTSYADYAKGRFTISRDNAKNTVYLQMNSLKPEDTAVYYCNARDGFFNRYDYWGQGTQVTVSS
# B2: R1a-C5 (VHH)
# VHH: QVQLVESGGGLVQPGGSLRLSCAASNDIFSFYTMGWYLQAIGKQREPVAVIGNGGNTNYAESVKGRFTISRDGAKNTAYLQMNSLKPEDTAVYYCMASGPGGLNVWGQGTQVTVSS
# B3: R2b-E8 (VHH)
# VHH: QVQLVESGGGLVQPGGSLRLSCAASGSFFSRYRMGWYRQAPGEQRELVAGITYDDSTNYAGSVKGRFTISRDNAKNTVHLQMNSLKPEDTAVYYCNLNPPGNLYWGQGTQVTVSS
# B4: R2b-D9 (VHH)
# VHH: QVQLVESGGGLVQPGGSLRLSCLASGSAFSLYTMGWYRQAPGNQRELVAAITSGESTNYADSVKGRFTISRDNAKNTVYLQMNSLKPEDTAVYYCNADPLSTGWGQYSYWGQGTQVTVSS
# B5: R2a-G8 (VHH)
# VHH: QLQLAESGGGLVQAGGSLRLSCAASGSTLNNNAIGWFRQAPGKEREGVSCMNSRDGTTNYADSVKGRFTISRDVAKNTVYLQMNSLKPEDTAVYFCAVKGFAPFLIGCPWGKAEYDYWGQGTQVTVSS
# B6: R1a-B6 (VHH)
# VHH: QVQLVESGGGLVQPGGSLRLSCAASGSFFSRYRMGWYRQAPGEQRELVASIAYDGSTSYADPVKGRFTISRDNANTVHLQMYSLKPDDTAVYYCNLDPPGILYWGQGTQVTVSS
# B7: R1a-H6 (VHH)
# VHH: QVQLVESGGGLVQAGDSLRLSCTASVLTFSLYRVGWFRQAPGKEREFVAAIDWGDGPTTYADSVKGRFTISRDNAERTAYLQINSLKPEDTAVYYCGAGNTGSSDRSSSYVHWGQGTQVTVSS
# Assays:
# Assay in all cases: ELISA, inactivated virus
# [1] = target: A/Duck/Sing-Q/97 (H5N3) inactivated viral preparation (Influenza A virus A/Duck/Sing-Q/97 (H5N3))
# [2] = target: A/HongKong/213/2003 (H5N1) inactivated viral preparation (Influenza A virus A/HongKong/213/2003 (H5N1))
# [3] = target: A/Indonesia/05/2005 (H5N1) inactivated viral preparation (Influenza A virus A/Indonesia/05/2005 (H5N1))
# [4] = target: A/TurkTurk/1/2005 (H5N1) inactivated viral preparation (Influenza A virus A/turkey/Turkey/1/2005 (H5N1))
# [5] = target: A/Vietnam/119/2004 (H5N1) inactivated viral preparation (Influenza A virus A/Vietnam/119/2004 (H5N1))
# [6] = target: A/mallard/Eng/727/06 (H2N3) inactivated viral preparation (Influenza A virus A/mallard/Eng/727/06 (H2N3))
# [7] = target: A/HongKong/1073/99 (H9N2) inactivated viral preparation (Influenza A virus A/HongKong/1073/99 (H9N2))
Binder,EC50 [1],EC50 [2],EC50 [3],EC50 [4],EC50 [5],EC50 [6],EC50 [7]
B1,0.27 µg/mL,0.27 µg/mL,0.15 µg/mL,0.13 µg/mL,0.25 µg/mL,0.006 µg/mL,–
B2,7.57 µg/mL,2.9 µg/mL,1.17 µg/mL,0.15 µg/mL,2.89 µg/mL,0.06 µg/mL,4.48 µg/mL
B3,4.98 µg/mL,1.2 µg/mL,0.8 µg/mL,0.89 µg/mL,1.83 µg/mL,0.002 µg/mL,5.63 µg/mL
B4,5.64 µg/mL,2.8 µg/mL,0.58 µg/mL,0.76 µg/mL,1.81 µg/mL,0.06 µg/mL,–
B5,9.67 µg/mL,6.2 µg/mL,5.7 µg/mL,1.93 µg/mL,3.36 µg/mL,2.5 µg/mL,–
B6,1.32 µg/mL,0.37 µg/mL,0.42 µg/mL,0.44 µg/mL,0.82 µg/mL,0.102 µg/mL,2.3 µg/mL
B7,–,–,–,–,–,–,5.7 µg/mL
